± gives the uncertainty stated by the source.
Assay: self-splicing fitness, log relative to wild type (ln ratio); higher = more splicing; Tetrahymena group I intron in knt gene, E. coli kanamycin selection, DiMSum; sequences stand for … in CUCUCU…GGAGGGAAAAGUUAUCAGGCAUGCACCUGGUAGCUAGUCUUUAAACCAAUAGAUUGCAUCGGUUUAAAAGGCAAGACCGUCAAAUUGCGGGAAAGGGGUCAACAGCCGUUCAGUACCAAGUCUCAGGGGAAACUUUGAGAUGGCCUUGCAAAGGGUAUGGUAAUAAGCUGACGGACAUGGUCCUAACCACGCAGCCAAGUCCUAAGUCAACAGAUCUUCUGUUGAUAUGGAUGCAGUUCACAGACUAAAUGUCGGUCGGGGAAGAUGUAUUCUUCUCAUAAGAUAUAGUCGGACCUCUCCUUAAUGGGAGCUAGCGGAUGAAGUGAUGCAACACUGGAGCCGCUGGGAACUAAUUUGUAUGCGAAAGUAUAUUGAUUAGUUUUGGAGUACUCGUGGUCG
How it was run: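 A randomised library covering all eight P1ex-region intron nucleotides was built with the intron in the knt kanamycin-resistance gene on pET-22b(+) and held in E. coli BL21(DE3). Cells were grown overnight at 37°C or 30°C on LB agar, with or without 25 μg/mL kanamycin, plus 100 μg/mL carbenicillin, 50 μM IPTG and 0.2% rhamnose, and pooled colonies were amplicon-sequenced on an Illumina HiSeq 2500. DiMSum fitness is the error-weighted combination of wild-type-normalised replicate fold changes, kanamycin versus none.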

Row | Sequence | self-splicing fitness (ln) (30 °C) | self-splicing fitness (ln) (37 °C)
1 | GCUAAGCAAUAUUACGUACC | -0.573 ± 0.11 | 0.246 ± 0.17
2 | GCUCAGCAAUAUUACGACGU | 0.0949 ± 0.072 | 0.267 ± 0.079
3 | GCUCAGCAAUAUUACGAGGU | -1.06 ± 0.12 | -2.08 ± 0.23
4 | GCUCAGCAAUAUUACGCACU | 0.181 ± 0.11 | 0.213 ± 0.14
5 | GCUCAGCAAUAUUACGCCAG | -3.54 ± 0.26 | -1.83 ± 0.3
6 | GCUCAGCAAUAUUACGCCCG |  | -0.341 ± 0.44
7 | GCUCAGCAAUAUUACGCGAG | -2.78 ± 0.13 | -2.18 ± 0.17
8 | GCUCAGCAAUAUUACGCGUG | -1.99 ± 0.07 | -1.79 ± 0.089
9 | GCUCAGCAAUAUUACGCUAA | -2.11 ± 0.11 | -0.785 ± 0.11
10 | GCUCAGCAAUAUUACGCUCG | -1.1 ± 0.11 | -1.31 ± 0.18
11 | GCUCAGCAAUAUUACGCUUC | -1.9 ± 0.077 | -0.102 ± 0.081
12 | GCUCAGCAAUAUUACGGCCU | -1.6 ± 0.14 | -0.188 ± 0.16
13 | GCUCAGCAAUAUUACGGGGC | -3.56 ± 0.2 | -1.98 ± 0.2
14 | GCUCAGCAAUAUUACGGUAA | -1.52 ± 0.13 | -0.551 ± 0.11
15 | GCUCAGCAAUAUUACGUGGU | -1.88 ± 0.13 | -1.31 ± 0.17
16 | GCUCAGCAAUAUUACGUUAC | -1.56 ± 0.12 | -1.65 ± 0.14
17 | GCUCAGCAAUAUUACGUUAU | -1.08 ± 0.12 | -0.166 ± 0.12
18 | GCUCAGCAAUAUUACGUUCG | -1.13 ± 0.065 | -0.838 ± 0.074
19 | GCUCAGCAAUAUUACGUUUG | -2.64 ± 0.13 | -1.8 ± 0.15
20 | GCUGAGCAAUAUUACGAACC | -1.08 ± 0.14 | -0.236 ± 0.18
21 | GCUGAGCAAUAUUACGAAUG |  | -1.4 ± 0.37
22 | GCUGAGCAAUAUUACGACAC | -1.67 ± 0.14 | -1.1 ± 0.18

Row | Sequence | self-splicing fitness (ln) (30 °C) | self-splicing fitness (ln) (37 °C)
23 | GCUGAGCAAUAUUACGACGA |  | -0.876 ± 0.39
24 | GCUGAGCAAUAUUACGCGGG | -2.93 ± 0.14 | -1.19 ± 0.14
25 | GCUGAGCAAUAUUACGCUGU |  | -2.51 ± 0.49
26 | GCUGAGCAAUAUUACGGAUU | -2.33 ± 0.1 | -1.26 ± 0.11
27 | GCUGAGCAAUAUUACGGCAC | -0.439 ± 0.24 | -1.28 ± 0.39
28 | GCUGAGCAAUAUUACGGCGG | -1.79 ± 0.22 | 
29 | GCUGAGCAAUAUUACGGCUC |  | -1.71 ± 0.25
30 | GCUGAGCAAUAUUACGGGAG | -2.58 ± 0.35 | -2.15 ± 0.3
31 | GCUGAGCAAUAUUACGGUAC | -2.15 ± 0.22 | -2.77 ± 0.29
32 | GCUGAGCAAUAUUACGGUUU | -1.86 ± 0.075 | -1.25 ± 0.095
33 | GCUGAGCAAUAUUACGUCCA | -1.97 ± 0.27 | -2.32 ± 0.37
34 | GCUGAGCAAUAUUACGUCUG | -2.08 ± 0.14 | -0.981 ± 0.14
35 | GCUGAGCAAUAUUACGUGAU | -1.02 ± 0.1 | -1.13 ± 0.14
36 | GCUGAGCAAUAUUACGUGGU | -3.63 ± 0.32 | -2.22 ± 0.4
37 | GCUGAGCAAUAUUACGUUCG | -2.34 ± 0.12 | -1.17 ± 0.12
38 | GCUGAGCAAUAUUACGUUUG | -2.85 ± 0.17 | -2.76 ± 0.25
39 | GCUUAGCAAUAUUACGACCA | -1.45 ± 0.2 | -1.29 ± 0.38
40 | GCUUAGCAAUAUUACGACGU | -0.576 ± 0.13 | 0.408 ± 0.16
41 | GCUUAGCAAUAUUACGACUA | -1.34 ± 0.22 | -0.593 ± 0.2
42 | GCUUAGCAAUAUUACGAGGA | -0.769 ± 0.11 | -0.781 ± 0.1
43 | GCUUAGCAAUAUUACGAUAU | -1.67 ± 0.18 | -0.39 ± 0.17
44 | GCUUAGCAAUAUUACGAUUA | -1.01 ± 0.11 | -1.03 ± 0.1

— the supplement of paper PMC7877785
